Target: T1, HLA-A*0201 (Homo sapiens, UniProt P04439, D140Y/D185E/D98H/E176V/E277Q/G131W/G231S/I119V/I121R/I166T/I218V/L300P/L318F/N151K/N90K/P208A/P217A/Q86G/Q94H/R138H/R169H/T345S)
T1 construct: human tumoral cell T2 which expresses the HLA-A*0201 molecule; endogenous in cells; host or cells: T2 cells (human, TAP1/2 negative)
Experiment: Affinity of the peptide to T2 cell line (HLA-A*0201 expression, FACS, relative to HIV pol 589-597)
Format: binding
Settings: for mean relative fluorescence intensity of T2 cells: normalized to HIV peptide = 100
Excerpt: The experimental protocol is similar to the one that was validated for peptides presented by the HLA-A*0201 (Tourdot et al., A general strategy to enhance immunogenicity of low-affinity HLA-A2.1-associated peptides: implication in the identification of cryptic tumor epitopes. Eur J Immunol. 2000 December; 30(12):3411-21). Affinity measurement of the peptides is achieved with the human tumoral cell T2 which expresses the HLA-A*0201 molecule, but which is TAP ½ negative and incapable of presenting endogenous peptides.
(§1) T2 cells (5.104 cells per well) are incubated with decreasing concentrations of peptides from 100 μM to 0.1 μM (4 points: 100 μM, 10 μM, 1 μM, 0.1 μM) in serum-free medium (TexMacs) supplemented with […] of β2 Microglobulin at 37° C. for 16 hours. Cells are then washed two times and marked with the anti-HLA-A2 antibody coupled to PE (clone BB7.2, BD Pharmagen).
The analysis is achieved by FACS (Macsquant analyzer 10-Miltenyi).
For each peptide concentration, the geometric mean of the labelling associated with the peptide of interest is subtracted from background noise and reported as a percentage of the geometric mean of the […] labelling obtained for the reference peptide HIV pol 589-597 at a concentration of 100 μM. […] A2. Solubilisation of Peptides
as §1, with “32” for “β2”
For each peptide concentration, the geometric mean of the labelling associated with the peptide of interest is subtracted from background noise and reported as a percentage of the geometric mean of the […] labelling obtained for the reference peptide HIV pol 589-597 at a concentration of 100 μM.

Sequence: YIFEHPELL (YIFEHPETA) [CD22-B1]
- Concentration of peptide that induces 20% of HLA-A2 expression (T2 cells, peptide 100-0.1 μM, 16 h, 37° C., anti-HLA-A2 FACS): 0.16 µM
- In vitro binding affinity* (relative affinity) (normalized against HIV-pol concentration of peptide inducing 20% of HLA-A2 expression in the same experiment): 0.4
- mean relative fluorescence intensity of T2 cells (peptide 0.1 (μM)): 0
- mean relative fluorescence intensity of T2 cells (peptide 1 (μM)): 81
- mean relative fluorescence intensity of T2 cells (peptide 10 (μM)): 123
- mean relative fluorescence intensity of T2 cells (peptide 100 (μM)): 164
